# Conditions: Bos taurus; pH 7; Thermal; Absorbance; Sodium phosphate 100 mM; whole UniProt chain shown
protein,measurement,value
"Cytochrome b5 wild type, P00171 (protein) MAEESSKAVKYYTLEEIQKHNNSKSTWLILHYKVYDLTKFLEEHPGGEEVLREQAGGDATENFEDVGHSTDARELSKTFIIGELHPDDRSKITKPSESIITTIDSNPSWWTNWLIPAISALFVALIYHLYTSEN",Tm,67.2 °C
same,unfolding enthalpy (van 't Hoff),95.1 kcal/mol
